This passage reports fold reduction of affinity against intact 2F5 and Ki results from patent US20220228161A1 (published 2022).

Read-outs that look alike come from different tables or passages of the source. Where only a bound is given, the exact number is not on record here.

In one experiment the target is gp41 peptide […]. Description: SPR, antibody captured on Protein A chip, peptide as analyte, 1:1 model.
Experiment [1] concerns the target Nicotiana benthamiana subtilisin-like serine protease SBT2, recombinant, C-terminal hexahistidine tag. The experiment can be described thus: enzyme inhibition (fluorogenic substrate); pH 5.5, 30°C.
Experiment [2] addresses Nicotiana benthamiana subtilisin-like serine protease SBT1, recombinant, C-terminal hexahistidine tag. Described as above.
Experiment [3] has as its target T1, Nicotiana benthamiana subtilisin-like serine protease SBT2, recombinant, C-terminal hexahistidine tag.
T1 chain: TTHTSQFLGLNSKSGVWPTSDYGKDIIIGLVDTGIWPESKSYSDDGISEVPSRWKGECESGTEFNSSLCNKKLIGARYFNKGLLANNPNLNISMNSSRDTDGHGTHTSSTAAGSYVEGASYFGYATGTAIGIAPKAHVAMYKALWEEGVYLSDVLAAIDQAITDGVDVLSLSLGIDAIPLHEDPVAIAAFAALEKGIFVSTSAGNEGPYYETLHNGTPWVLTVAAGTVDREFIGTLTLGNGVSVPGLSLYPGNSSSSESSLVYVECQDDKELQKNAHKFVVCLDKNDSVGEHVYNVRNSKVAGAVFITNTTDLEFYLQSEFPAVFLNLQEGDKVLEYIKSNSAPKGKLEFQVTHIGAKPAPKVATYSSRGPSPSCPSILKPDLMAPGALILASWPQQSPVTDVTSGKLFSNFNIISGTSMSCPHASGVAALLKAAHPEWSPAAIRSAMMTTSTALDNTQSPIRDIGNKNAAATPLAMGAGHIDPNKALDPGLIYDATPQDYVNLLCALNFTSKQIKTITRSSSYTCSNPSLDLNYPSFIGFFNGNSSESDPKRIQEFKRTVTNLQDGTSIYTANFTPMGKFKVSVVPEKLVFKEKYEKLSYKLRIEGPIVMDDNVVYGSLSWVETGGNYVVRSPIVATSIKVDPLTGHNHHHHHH
The experiment is described as above.

The target in experiment [4] is T2, Nicotiana benthamiana subtilisin-like serine protease SBT1, recombinant, C-terminal hexahistidine tag.
T2 chain: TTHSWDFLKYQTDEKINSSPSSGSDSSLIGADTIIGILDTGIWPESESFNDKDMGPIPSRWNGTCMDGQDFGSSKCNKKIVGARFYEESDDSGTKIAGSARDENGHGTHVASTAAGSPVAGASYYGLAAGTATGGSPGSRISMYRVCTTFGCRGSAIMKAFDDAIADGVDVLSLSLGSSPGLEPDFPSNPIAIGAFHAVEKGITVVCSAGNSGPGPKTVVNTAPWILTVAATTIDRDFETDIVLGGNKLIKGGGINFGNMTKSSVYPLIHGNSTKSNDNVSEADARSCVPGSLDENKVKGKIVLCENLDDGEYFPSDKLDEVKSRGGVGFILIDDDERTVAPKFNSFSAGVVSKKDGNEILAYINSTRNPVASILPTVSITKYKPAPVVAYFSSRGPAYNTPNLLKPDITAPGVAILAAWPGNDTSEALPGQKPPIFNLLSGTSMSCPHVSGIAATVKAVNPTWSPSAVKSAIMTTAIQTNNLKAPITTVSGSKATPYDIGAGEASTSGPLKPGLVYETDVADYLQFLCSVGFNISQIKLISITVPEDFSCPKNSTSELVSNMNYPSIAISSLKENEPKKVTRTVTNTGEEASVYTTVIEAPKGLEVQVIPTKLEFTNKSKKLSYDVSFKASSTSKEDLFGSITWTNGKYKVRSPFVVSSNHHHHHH
The description is as above.

In the experiment with gp41 peptide […], “cleaved 2F5 (2F5 degradation product after digestion with apoplastic fluid proteases) (antibody)” returned a fold reduction of affinity against intact 2F5 of more than 20 fold.
Take “S106g065370 (subtilisin propeptide-like inhibitor from S. lycopersicum)”: the Ki (in general, the equilibrium dissociation constant of an inhibitor or competing ligand from its target) in experiment [1] amounted to 27 nM.
For “S111g018590 (subtilisin propeptide-like inhibitor from S. lycopersicum)”, the Ki in experiment [2] was found to be 51 nM.

B1: Arabidopsis thaliana subtilisin propeptide-like inhibitor 2 (other)
chain: RTLGPAPDNQQMKCYLVNVDFALYHGDCKQYQQLLKKVVHGRSAKDALVYCYKEVMSGFAAKLTAAEAEKLKGEKGISAIDVDHIFSMDVEPHSHGKGY
B1: the results for the Ki in experiment [3] and in experiment [4] were 45 nM and 81 nM, respectively.
